From PMC2898367 (The Journal of Biological Chemistry, 2010)

T1: CD81 tagged with AcGFP or DsRED (UniProt P60033 1-236)
T1 sequence (looked up): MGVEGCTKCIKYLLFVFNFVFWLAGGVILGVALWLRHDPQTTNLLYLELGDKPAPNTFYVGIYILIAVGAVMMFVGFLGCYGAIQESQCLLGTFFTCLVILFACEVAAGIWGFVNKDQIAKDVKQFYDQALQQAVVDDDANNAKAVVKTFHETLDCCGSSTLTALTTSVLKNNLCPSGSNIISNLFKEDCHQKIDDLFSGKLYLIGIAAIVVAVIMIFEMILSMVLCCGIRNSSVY

T2: DsRED-tagged Occludin (UniProt Q16625 1-522)
T2 sequence (looked up): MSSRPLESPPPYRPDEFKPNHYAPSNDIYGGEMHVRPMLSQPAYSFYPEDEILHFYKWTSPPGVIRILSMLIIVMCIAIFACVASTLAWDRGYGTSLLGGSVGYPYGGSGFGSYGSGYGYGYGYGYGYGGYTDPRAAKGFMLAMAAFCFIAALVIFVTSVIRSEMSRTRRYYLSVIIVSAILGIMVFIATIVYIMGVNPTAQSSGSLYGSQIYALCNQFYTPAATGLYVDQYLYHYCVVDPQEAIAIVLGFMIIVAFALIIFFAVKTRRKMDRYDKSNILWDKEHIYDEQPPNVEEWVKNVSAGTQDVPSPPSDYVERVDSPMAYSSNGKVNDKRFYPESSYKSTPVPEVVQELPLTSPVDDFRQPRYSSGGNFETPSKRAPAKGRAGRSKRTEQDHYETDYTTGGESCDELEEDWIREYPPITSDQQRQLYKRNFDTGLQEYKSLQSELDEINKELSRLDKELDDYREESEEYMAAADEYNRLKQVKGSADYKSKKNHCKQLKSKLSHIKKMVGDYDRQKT

T3: CD81 tagged with AcGFP or DsRED, P60033
T3 chain: T1 sequence (looked up)

B1: AcGFP-tagged Claudin-9 (natural protein, UniProt O95484 1-217, looked up)
chain: MASTGLELLGMTLAVLGWLGTLVSCALPLWKVTAFIGNSIVVAQVVWEGLWMSCVVQSTGQMQCKVYDSLLALPQDLQAARALCVIALLLALLGLLVAITGAQCTTCVEDEGAKARIVLTAGVILLLAGILVLIPVCWTAHAIIQDFYNPLVAEALKRELGASLYLGWAAAALLMLGGGLLCCTCPPPQVERPRGPRLGYSIPSRSGASGLDKRDYV
B2: AcGFP-tagged Claudin-4 (natural protein, UniProt O14493 1-209, looked up)
chain: MASMGLQVMGIALAVLGWLAVMLCCALPMWRVTAFIGSNIVTSQTIWEGLWMNCVVQSTGQMQCKVYDSLLALPQDLQAARALVIISIIVAALGVLLSVVGGKCTNCLEDESAKAKTMIVAGVVFLLAGLMVIVPVSWTAHNIIQDFYNPLVASGQKREMGASLYVGWAASGLLLLGGGLLCCNCPPRTDKPYSAKYSAARSAAASNYV
B3: AcGFP-tagged Claudin-12 (natural protein, UniProt P56749 1-244, looked up)
chain: MGCRDVHAATVLSFLCGIASVAGLFAGTLLPNWRKLRLITFNRNEKNLTVYTGLWVKCARYDGSSDCLMYDTTWYSSVDQLDLRVLQFALPLSMLIAMGALLLCLIGMCNTAFRSSVPNIKLAKCLVNSAGCHLVAGLLFFLAGTVSLSPSIWVIFYNIHLNKKFEPVFSFDYAVYVTIASAGGLFMTSLILFIWYCTCKSLPSPFWQPLYSHPPSMHTYSQPYSARSRLSAIEIDIPVVSHTT
B4: Claudin-1 tagged with AcGFP or DsRED (natural protein, UniProt O95832 1-211, looked up)
chain: MANAGLQLLGFILAFLGWIGAIVSTALPQWRIYSYAGDNIVTAQAMYEGLWMSCVSQSTGQIQCKVFDSLLNLSSTLQATRALMVVGILLGVIAIFVATVGMKCMKCLEDDEVQKMRMAVIGGAIFLLAGLAILVATAWYGNRIVQEFYDPMTPVNARYEFGQALFTGWAAASLCLLGGALLCCSCPRKTTSYPTPRPYPKPAPSSGKDYV
B5: AcGFP-tagged Claudin-17 (natural protein, UniProt P56750 1-224, looked up)
chain: MAFYPLQIAGLVLGFLGMVGTLATTLLPQWRVSAFVGSNIIVFERLWEGLWMNCIRQARVRLQCKFYSSLLALPPALETARALMCVAVALSLIALLIGICGMKQVQCTGSNERAKAYLLGTSGVLFILTGIFVLIPVSWTANIIIRDFYNPAIHIGQKRELGAALFLGWASAAVLFIGGGLLCGFCCCNRKKQGYRYPVPGYRVPHTDKRRNTTMLSKTSTSYV
B6: AcGFP-tagged Claudin-11 (natural protein, UniProt O75508 1-207, looked up)
chain: MVATCLQVVGFVTSFVGWIGVIVTTSTNDWVVTCGYTIPTCRKLDELGSKGLWADCVMATGLYHCKPLVDILILPGYVQACRALMIAASVLGLPAILLLLTVLPCIRMGQEPGVAKYRRAQLAGVLLILLALCALVATIWFPVCAHRETTIVSFGYSLYAGWIGAVLCLVGGCVILCCAGDAQAFGENRFYYTAGSSSPTHAKSAHV
B7: AcGFP-tagged Claudin-6 (natural protein, UniProt P56747 1-220, looked up)
chain: MASAGMQILGVVLTLLGWVNGLVSCALPMWKVTAFIGNSIVVAQVVWEGLWMSCVVQSTGQMQCKVYDSLLALPQDLQAARALCVIALLVALFGLLVYLAGAKCTTCVEEKDSKARLVLTSGIVFVISGVLTLIPVCWTAHAIIRDFYNPLVAEAQKRELGASLYLGWAASGLLLLGGGLLCCTCPSGGSQGPSHYMARYSTSAPAISRGPSEYPTKNYV
B8: CD81 tagged with AcGFP or DsRED, P60033 1-236 (natural protein)
chain: T1 sequence (looked up)

Assays:
Assay in all cases: FRET or BRET
[1] = biological target: CD81 tagged with AcGFP or DsRED (UniProt P60033)
[2] = biological target: B4
[3] = biological target: T1, CD81 tagged with AcGFP or DsRED
DsRED-tagged Occludin = biological target: T2, DsRED-tagged Occludin
[4] = biological target: T3, CD81 tagged with AcGFP or DsRED, P60033; details: remark: other sources report otherwise

| %FRET [2] [%] | %FRET (DsRED-tagged Occludin) [%] | Molecule | other results |
| --- | --- | --- | --- |
| – | – | Claudin-1 tagged with AcGFP or DsRED (from UniProt O95832 1-211) (natural protein) | %FRET [1]: 25%; %FRET (after 10 mM MβCD, 1 h) [1]: 35% |
| 18 | 18 | B1 | %FRET [3]: 63% |
| 18 | – | B2 | – |
| – | 38 | B3 | – |
| – | 48 | B4 | – |
| – | 40 | B5 | – |
| – | 23 | B6 | – |
| 31 | 27 | B7 | %FRET [3]: 50% |
| – | – | B8 | %FRET (after 10 mM MβCD, 1 h) [4]: 55%; %FRET (untreated cells) [4]: 63% |
